Reference: publication PMC11354668

Key:
[1] = tested on: ChromPure mouse IgG whole molecule (mouse); test: BLI; conditions: BLI (Octet K2), SAX2.0 sensors loaded with 0.5 uM 5'-biotin DNA, IgG 0.0125-0.2 mg/mL, PBST-B, 30 C, pH not …
staphylococcal protein A = staphylococcal protein A (UniProt P38507); test: BLI; Octet K2; SPA biosensor (sensor type: ProA) with mouse IgG; SPA-IgG run as positive control; the IgG concentrations and times of this kinetic run are not described

Substance	Kd ([1]; 5'-biotin)	further results
TTTTTTTTTTTTTTTG [2C62]	3240 nM	
CGCCTAGGTTGGGTAGGGTGGTGGCG [6GN7]		Kd ([1]; 5'-biotin (unmodified in SPA competition)): 241 nM
GGGGGGGGGGGGGGG [poly-G15]	273 nM	
TTTTTTTTTTTT [4JS5]	1730 nM	
CAGTGGCTGA [2KN7]	1200 nM	
ChromPure mouse IgG whole molecule (antibody)		Kd (staphylococcal protein A): 14.9 nM; koff (staphylococcal protein A): 0.000716 s⁻¹; kon (staphylococcal protein A): 48000 M⁻¹ s⁻¹
TTTTTTTTTTTTTTTTTTTT [poly-T20]	830 nM	
TTTTTTTTTT [poly-T10]	1490 nM	
GGGTCGGTGCCTTA [6CRM]	1110 nM	
TTTTTTTTTTTTTTTTTTTTTTTTT [poly-T25]	1010 nM	
TGTACAATGGG [3UGO]	793 nM	
GGGGTTTTGGGGT [1PH1-D]	881 nM	
TTTTTTTTTTTTTTTTTTTTTTTTT [4GNX]	2100 nM	
TTTTTTTTTTTTTTTTT [7JSG]	1120 nM	
GGGGGGGGGG [poly-G10]	295 nM	
TTTTTTTTTTTTTTTTTTTTTTTTTTTTTT [poly-T30]	1430 nM	
TTTTTTTTTTTTTTT [poly-T15]	909 nM	
TTTTTTTTTTTTTTTTTTCCCTTTTTTTTTTTTTTTTTTT [5XRZ]	843 nM	
TTTTTTTT [7JSI]	1830 nM	
TGGGGTGTGG [2A0I]	872 nM	
TTTTTTTTTT [4OU6]	947 nM	
GGGGTTTTGGGG [1OTC]	414 nM	
CCCCCCCCCCCCCCC [poly-C15]	1360 nM	
GGTTGGTGTGGTTGG [1RDE]	1090 nM	
GCGGCGG [5FGP]	1510 nM	
TTTTTTTTTTTTTTT [2CCZ]	909 nM	
GGGGTGGGTGGTGGGT [7XHD]	521 nM	
TTTTTTTTTTTTTTTT [6SKO]	1070 nM	
